Measurements: PMC3592463
Read-outs that look alike come from different tables or passages of the source.

B1: J6 (ssRNA)
RNA: GACUCAGUGUCAGAGUCACUG
B2: J2 (ssRNA)
RNA: AAUUUAAUGUUUUAGUUACUA
B3: ds21R (dsRNA)
RNA 1: AUGUGGAAAAUCUCUAGCAGU
RNA 2: ACUGCUAGAGAUUUUCCACAU
B4: J1 (ssRNA)
RNA: AAUUUAAUGUUUUAUUUAUUA
B5: J3 (ssRNA)
RNA: AAUUCAAUGUUUUAGUUACUG
B6: JM6 (dsRNA)
RNA 1: GACUCAGUGUCAGAGUCACUG
RNA 2: CAGUGACUCUGACACUGAGUC
B7: J4 (ssRNA)
RNA: AACUCAAUGUCUUAGUUACUG
B8: 21R+ (ssRNA)
RNA: AUGUGGAAAAUCUCUAGCAGU

Assays:
Hfq [1] = target: T1, Hfq (E. coli, UniProt P0A6X3 1-102); test: MST
T1 sequence (P0A6X3 whole entry): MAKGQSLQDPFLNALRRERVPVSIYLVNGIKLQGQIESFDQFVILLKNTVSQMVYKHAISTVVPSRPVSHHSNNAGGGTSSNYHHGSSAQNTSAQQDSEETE

Hfq [2] = target: T1, Hfq; test: MST; remark: listed apart in the source
Tat(44-61) [3] = target: T2, Tat(44-61) (UniProt P04608 44-61); test: MST
T2 chain: GISYGRKKRRQRRRAHQN

Hfq [4] = target: T1, Hfq; test: EMSA
Tat(44-61) [5] = target: T2, Tat(44-61); test: MST

Row | Binder | binding result (Hfq [1]) | also measured
1 | B1 | no binding | –
2 | B2 | – | binding result (Hfq [2]): binds
3 | B3 | – | Kd (Tat(44-61) [3]): 7.4 ± 0.9 µM
4 | B4 | – | binding result (Hfq [4]): binds
5 | B5 | binds | –
6 | B6 | no binding | –
7 | B7 | binds | –
8 | B8 | – | Kd (Tat(44-61) [5]): 6.3 ± 0.5 µM
